B1: HDV Ribozyme (parent)
chain: GGCCGGCAUGGUCCCAGCCUCCUCGCUGGCGCCGGCUGGGCAACAUUCCGAGGGGACCGUCCCCUCGGUAAUGGCGAAUGGGACCCA

The variants in the data set derive from B1. Description: self-cleavage, relative activity (ratio to wild type); higher = more cleavage; co-transcriptional.
For C36A G81A, the self-cleavage is 0.138.

Regarding C36A G81C, the self-cleavage is 0.102.

For C36G G38C, the self-cleavage turned out to be 0.208.

For C36A C61A, the self-cleavage is 0.0536.

On to C36A C61U, for which the self-cleavage turned out to be 0.138.

As to C36U C61G, the self-cleavage is 0.466.

As for C36U C61A, the self-cleavage came to 0.831.

For C36U C61U, the self-cleavage was determined as 0.726.

In the case of C36U U46C, the self-cleavage turned out to be 0.481.

With C36A G39U, the self-cleavage was determined as 0.0906.

Consider G35U G40C, for which the self-cleavage amounted to 0.136.

Take C36A C48U: the self-cleavage was found to be 0.116.

As for C36A C63U, the self-cleavage was 0.177.

Consider C36A C63G, for which the self-cleavage was found to be 0.208.

Take G35U A43U: the self-cleavage came to 0.282.

For G35U A43G, the self-cleavage amounted to 0.185.

As for C36G G53U, the self-cleavage was 0.148.

On to C36G G53A, for which the self-cleavage came out at 0.0959.

C36U A42U: the self-cleavage is 0.208.

On to G35U U47A, for which the self-cleavage came to 0.332.

In the case of C36A A71G, the self-cleavage came to 0.0405.

Consider C36A A71C, for which the self-cleavage is 0.0573.

In the case of C36A A71U, the self-cleavage was found to be 0.309.

Turning to G35U G38A, the self-cleavage was determined as 0.0702.

For the variant G35U G53U, the self-cleavage was 0.288.

As to C36A U47G, the self-cleavage came to 0.208.

C36A U47C: the self-cleavage is 0.0519.

With C36U U72A, the self-cleavage turned out to be 0.324.

C36A G67A: the self-cleavage was 0.126.

On to C36A G67U, for which the self-cleavage is 0.155.

C36A G67C: the self-cleavage amounted to 0.208.

As to C36A U79G, the self-cleavage is 0.175.

For the variant C36A U79A, the self-cleavage was determined as 0.0615.

As to C36A A45G, the self-cleavage amounted to 0.256.

In the case of C36A A45C, the self-cleavage amounted to 0.

On to C36A C49A, for which the self-cleavage came to 0.0554.

Take C36A C49U: the self-cleavage amounted to 0.116.

As to C36G G59A, the self-cleavage was found to be 0.169.

For G35C G82U, the self-cleavage was 0.0723.

Consider G35U A70C, for which the self-cleavage is 0.354.

As to G35C U72G, the self-cleavage was found to be 0.346.

In the case of G35C U72C, the self-cleavage amounted to 0.156.

Take G35C U72A: the self-cleavage came out at 0.

For the variant C36A G73U, the self-cleavage came to 0.0583.

As to C36A G73A, the self-cleavage stood at 0.104.

With G35U C75A, the self-cleavage came to 0.138.

As to G35U C75G, the self-cleavage was determined as 0.0378.

Regarding G35U C75U, the self-cleavage came out at 0.095.

With C36U C57A, the self-cleavage was 0.816.

As for C36A C41U, the self-cleavage was 0.171.

With C36A C41A, the self-cleavage is 0.102.

With C36A C41G, the self-cleavage amounted to 0.18.

Consider C36G G39U, for which the self-cleavage came out at 0.0652.

With C36U A45C, the self-cleavage was found to be 0.0426.

Consider C36U A45U, for which the self-cleavage was determined as 0.658.

Turning to C36G C66G, the self-cleavage came to 0.237.

With G35C U69G, the self-cleavage came to 0.277.

In the case of G35C U69A, the self-cleavage stood at 0.443.

As to C36A A77U, the self-cleavage amounted to 0.217.

On to C36A A77C, for which the self-cleavage was determined as 0.259.

With C36A G59A, the self-cleavage amounted to 0.164.

C36A A87C: the self-cleavage is 0.147.

Regarding C36A A87U, the self-cleavage came to 0.0587.

For the variant G35U A87U, the self-cleavage turned out to be 0.451.

With G35U U79G, the self-cleavage was 0.0426.

In the case of G35U U79C, the self-cleavage was found to be 0.0992.

Regarding C36U G40U, the self-cleavage stood at 0.602.

Turning to C36U G40A, the self-cleavage stood at 0.831.

Regarding G35U G73U, the self-cleavage is 0.19.

For the variant C36A C44G, the self-cleavage is 0.125.

G35U C44A: the self-cleavage worked out at 0.

On to G35U C44G, for which the self-cleavage was found to be 0.0755.

Consider G35C U37A, for which the self-cleavage was determined as 0.

For G35C U37G, the self-cleavage worked out at 0.0504.

Regarding C36U G68A, the self-cleavage was determined as 0.626.

As for C36U G68C, the self-cleavage is 0.563.

C36G C49U: the self-cleavage is 0.0811.

C36G C49G: the self-cleavage turned out to be 0.0773.

Regarding C36U A78C, the self-cleavage stood at 0.173.

Regarding C36U A78U, the self-cleavage is 0.154.

As to C36A G50U, the self-cleavage was found to be 0.0923.

Consider C36A G50A, for which the self-cleavage is 0.151.

In the case of C36G U65A, the self-cleavage was 0.244.

Take C36G G76C: the self-cleavage amounted to 0.0692.

C36U G38C: the self-cleavage is 0.113.

In the case of C36U G38U, the self-cleavage was 0.147.

Take C36A G38A: the self-cleavage turned out to be 0.0845.

In the case of C36A G38C, the self-cleavage is 0.0415.

In the case of C36A G38U, the self-cleavage worked out at 0.189.

In the case of C36U G67C, the self-cleavage was determined as 0.831.

C36A C75G: the self-cleavage was 0.154.

In the case of G35U, the self-cleavage worked out at 0.454.

For the variant C36A A42U, the self-cleavage amounted to 0.122.

Turning to C36G G74A, the self-cleavage worked out at 0.0779.

Consider C36U C84G, for which the self-cleavage worked out at 0.324.

Regarding C36U C84A, the self-cleavage stood at 0.489.

On to C36U C84U, for which the self-cleavage came out at 0.716.

On to G35C U79A, for which the self-cleavage worked out at 0.122.

Consider G35C U79C, for which the self-cleavage was 0.132.

For C36U G80U, the self-cleavage was 0.224.

In the case of C36A G53C, the self-cleavage is 0.0277.

On to C36A G53U, for which the self-cleavage came out at 0.19.

For C36A G53A, the self-cleavage was found to be 0.218.

As for C36G A77G, the self-cleavage stood at 0.0791.

On to C36A G40C, for which the self-cleavage came out at 0.102.

In the case of C36A G40A, the self-cleavage worked out at 0.234.

As to C36A G40U, the self-cleavage turned out to be 0.161.

On to C36A C58U, for which the self-cleavage was 0.222.

Take C36A C58A: the self-cleavage was found to be 0.227.

Turning to C36A C58G, the self-cleavage was found to be 0.119.

On to G35U C66U, for which the self-cleavage worked out at 0.459.

For C36U A56C, the self-cleavage turned out to be 0.888.

For C36U G82U, the self-cleavage came to 0.234.

Regarding C36U G82C, the self-cleavage was determined as 0.269.

For C36U G82A, the self-cleavage amounted to 0.327.

On to C36U A87C, for which the self-cleavage was 0.778.

For C36U A87U, the self-cleavage was 0.769.

With C36A C86U, the self-cleavage worked out at 0.17.

With C36A C86G, the self-cleavage came out at 0.325.

Turning to C36G U72C, the self-cleavage was 0.0462.

For the variant C36G U72A, the self-cleavage was 0.138.

As to C36U A77G, the self-cleavage came out at 0.475.

Turning to C36U A77U, the self-cleavage turned out to be 0.224.

In the case of C36U A77C, the self-cleavage was determined as 0.145.

Turning to C36G U47A, the self-cleavage is 0.177.

In the case of C36U C44U, the self-cleavage worked out at 0.197.

Take C36U C44A: the self-cleavage came to 0.166.

In the case of G35U A51U, the self-cleavage is 0.471.

With C36G C62G, the self-cleavage amounted to 0.142.

Take C36G G73U: the self-cleavage was determined as 0.0326.

Regarding C36U A70C, the self-cleavage was found to be 0.849.

On to C36U A70G, for which the self-cleavage came out at 0.969.

Turning to C36U A71C, the self-cleavage amounted to 0.408.

With C36U, the self-cleavage worked out at 0.744.

C36G: the self-cleavage came to 0.13.

As to C36A, the self-cleavage is 0.147.

Turning to C36U G54U, the self-cleavage was 0.796.

Consider C36A C57A, for which the self-cleavage is 0.297.

For the variant C36A C57G, the self-cleavage was 0.0898.

In the case of C36G A43G, the self-cleavage amounted to 0.0519.

In the case of C36G A43C, the self-cleavage is 0.166.

C36A G55A: the self-cleavage was 0.188.

Turning to C36G C58G, the self-cleavage was determined as 0.0594.

Turning to C36G C58U, the self-cleavage was found to be 0.128.

For C36G C58A, the self-cleavage is 0.201.

On to C36U C86U, for which the self-cleavage was 0.712.

C36G A56G: the self-cleavage is 0.0594.

For C36G A56C, the self-cleavage amounted to 0.158.

For the variant C36G A56U, the self-cleavage was 0.111.

Consider G35U C57A, for which the self-cleavage is 0.517.

With G35U C57G, the self-cleavage is 0.415.

G35U C57U: the self-cleavage was 0.538.

Take G35C U46C: the self-cleavage was determined as 0.185.

On to C36U C41U, for which the self-cleavage stood at 0.602.

C36A U65C: the self-cleavage turned out to be 0.095.

Regarding C36A U65A, the self-cleavage came to 0.163.

For G35U U60A, the self-cleavage is 0.415.

Turning to G35U U60C, the self-cleavage turned out to be 0.317.

In the case of C36U G55C, the self-cleavage was 0.789.

Turning to G35U A56C, the self-cleavage stood at 0.358.

As to G35U A56U, the self-cleavage came to 0.62.

In the case of G35U A56G, the self-cleavage amounted to 0.393.

As to C36A C62A, the self-cleavage worked out at 0.261.

For C36A C62U, the self-cleavage turned out to be 0.175.

As to C36U G52C, the self-cleavage worked out at 0.779.

With C36U G52A, the self-cleavage was determined as 0.785.

G35U G67U: the self-cleavage was 0.391.

Source of the values: the RNAGym collection of RNA variant scans (doi:10.7554/elife.80360).
